Measurements taken from publication PMC4890538.

How the values were obtained:
[1] = target: recombinant Glutathione-S-Transferase (GST) tagged PfLDH (Plasmodium falciparum lactate dehydrogenase) (Plasmodium falciparum)
[2] = target: recombinant Glutathione-S-Transferase (GST) tagged PfLDH (Plasmodium falciparum lactate dehydrogenase) (Plasmodium falciparum); test: fluorescence polarisation

Sequence of recombinant Glutathione-S-Transferase (GST) tagged PfLDH (Plasmodium falciparum lactate dehydrogenase) (Plasmodium falciparum) (Q27743 whole entry): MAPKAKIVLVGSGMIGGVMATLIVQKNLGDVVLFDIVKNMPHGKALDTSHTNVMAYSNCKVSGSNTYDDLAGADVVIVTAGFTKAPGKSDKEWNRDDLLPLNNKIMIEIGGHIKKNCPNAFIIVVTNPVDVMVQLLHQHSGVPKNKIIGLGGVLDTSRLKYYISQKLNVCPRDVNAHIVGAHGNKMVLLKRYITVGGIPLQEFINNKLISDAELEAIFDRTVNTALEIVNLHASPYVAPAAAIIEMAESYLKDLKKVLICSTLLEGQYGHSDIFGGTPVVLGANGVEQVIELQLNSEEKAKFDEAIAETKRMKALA

| Binder | EC50 [1] [nM] | Kd [2] [nM] |
| --- | --- | --- |
| HWSAN (not fully specified) [Cy(HWSAN-click), biotin tagged] | 23.4 | – |
| HWSAN (not fully specified) [Cy(HWSAN-click), fluorescein tagged] | – | 40.6 |
